The nature of this data set: protease stability score; higher = more stable; yeast display proteolysis, trypsin and chymotrypsin.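 Note: relative to predicted unfolded state with 0 unfolded-like and 1 meaning tenfold more protease.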
“SEEHEKTRRALELWIDVMKTGDPEHILRLLDPHTKIHQGEFELHGRHDAHRWLSRLGVERIHFELKDVRYFDGQILVDGVIFFNGRESRVNVVAMKVNGRWFVDSLEIQ”: the protease stability score came to 0.755.
Sequence “SEEHELAESMAEEVLRSFLTGDEDTLHELFDPHVRVNYNGKVFHGREKLIKILNELRWDHTTVKRIEIRYYGDKVEVVLHVEIHFEINGQRISHRVDIIIIAEKVNGRWRVRDFIYIEK” came in with a protease stability score of 1.35.
For “SEEHELSHHWADLMFHWMLTGDEEMFEHFADPHVRLHVNGKDIHGREKFVEWLREELEKIKNLTYRLHDVEIQGDKVHLTVKVDVNGKRLDTRVHIDLVNGRVRSIEIRHR” the value was 1.42; for “SEEHEMLKRIMELVIHLFLTGNEDWLRELIDPDTRLHINGVDNHGREEAIRWLHEYNKHLRIHTMEIKRLDVVNGQAHSHVHHEWTINGKQHETEMELIVVVVNGKVKSQELRIK”, 0.629.
For “SEEHEQLLRMAQIWIKNWLTGDEKSMIELADPRVLFIYGDKIHHGWEEMSKFLHRLMEEIRIEDLRIDSFRAYNGRVEHDTTIDVEIGDKRINLKHHFHLDVVDGRIRHVKVKID” the value was 0.726; for “SEEHERIKRASEEIWRMSETGDFETFFNNFDPNARSDVDGVFNHGREELHRVLLEFWHKLGLTRIDAKVHDDHSFENHLKVDLEERFDGRTVEVRIISRKYDGRWFYTDLIIIRR”, 0.169.
Take “SEEHESSQKAIELLWHSMETGDEKLTEDFADPHVRLEFNGVRFHGRDQMNEIIHRQLREMRLKSIHLHHIYSFNGRVHIHGEVIGRVDGRELSHEMEIVAVKVDGKWVLKSLRIH”: the protease stability score was determined as 1.2.
As to “SEEHETMNKLASDLIHDWLTGDWENTKELLDPHVKIDERVNGKNHQHHGREELVRILRERHEKIKGLRISIHHWEVINGRLHMDLRLHINGKTFSVEIHITIVDGRVKHIHVDIN”, the protease stability score was 1.22.
The sequence “SEEHEVAKDAFDVTSHSWKTGDEELFRKLLDPNARFEIDGRDLHGRELVIKFIIEIRWEHTHVEEINVQGDKIIIKSRMEIHYNGVHINITVIVHVRKVNGRWITTHYIFI” came in with a protease stability score of 1.67.
For “SEEHHDAERAMEEFLKVMNTGNEKLLRDLIDPNVRTEINGQEIIGWKSMHRIMREWGVDNIRVHLRRLEVQGEKLHLEEELNVNGRTSKMEIVALKINGRWVVSEIRFH”, the protease stability score amounted to 2.03.
With “SEEHHHYSELMHQLTEWMLTGNFEEWARYADPNTRARIDIDGRRLEVHGREEMMRVLKEHRKLMGVDHIEVRDRHVFNGRNELIFILHQGDKERHSHITIVVINGQIKEVDIILR”, the protease stability score is 1.61.
Sequence “SEEHHIIHKFLEDFLRSWITGDEKSMKELLDPHAKVDIRVNGRDVHPHGWEFLEWYKRFFKNAQFRVHDIDVQGNKVHLITEVVVNGQKEEMHIHLQVVDGRAERVETRIH” registered a protease stability score of 1.9.
On to “SEEHHSEKLAIHLSKEISHTGDETWIKKMLDPNVKIVIGDKEFHGMENFVTHWHRLVKELGVDRVRHRVEDSDVQGDKLTMHVEIEVNGRKVESHIIAHKFNGRWLVKEIIFH”, for which the protease stability score was found to be 1.23.
“SEEHKEAREFLEEWITFIHTGDEDMIHKMLDPDTRSNINGRDLHGRELAVKIIIEEVRRYRGVQIRMEREHVVDGRMESTIRVHQGEKEFEVIVHFVKINGRWRLKWIEIR” returned a protease stability score of 1.3.
In turn, “SEEHKELRELIRITFEDLFTGDEDAFMRLFDPHTILHIGEKRYIGREIIIHALRWLGVDHMEIKHIDIQGEKVDMHMHLKVGDKSWTMHLHIEKFNGQWHSKHIEIR” yielded a protease stability score of 1.95.
Regarding “SEEHKEMKRSLDESAKALTTGDEEHVTKMVDPNVRIIIGDKTLIGMEKWHEFLKEMRVSIHHIIFRDSDIQGDKIRLDVEVDIRVHYNGREESSKIKSKIILLKFNGKWIIHAVEFD”, the protease stability score turned out to be 0.833.
For “SEEHKLLRETLEILWDTIETGDEHKLSNLLDPRARLRVGDKEYHGREEVMRIMTEIRVDRFRLHSITLVDGRAIIHTEIDVRVNGQRFRTSVTIFLIKVDGRWFVESLQID” the value was 2.4.
For “SEEHKMVRDVTEDWLRLLLTGDEERLAELLDPNTRFLINGKEHHGREEAIEEWRHLRVDDFRIKSIDIQYQGEKAYVDIDGRQRGKVNGKKQDRDIKIHFHILKINGRWTIHEVRVEIE” the value was 1.56.
For “SEEHKQIEEFLTRFYRFKKTGDEKMLSRMADPNYKMDIDGQDVHGREEYEEASRRFDHIHHIKLRQFERQGNKVYLDIEVDGEVNGRQTKHTSTLILLKIDGRWYIEHVHWE” the value was 0.722.
As for “SEEHKRIEKLLRRLQDALKTGDERDIMNLLDPNVRIEINGKDLIGREVWAKIMHHLRVEDSEINIHHSRSQGNFLESDIETHRHIHVDGKDIDLTWEEHVVIIKVDGKWKIERVHIR”, the protease stability score was found to be 1.17.
For the sequence “SEEHKVAQHAIEIEEHVWHTGDERMLHELFDPDARLIINGQEFHGREELHRFREEMRITHMRTKEVRVQGDKMEIHVRVDVDINGKRTDIRVIIISRKVDGRWINTEIEFR”, the protease stability score worked out at 0.734.
In the case of “SEEHKWVHMAFEVLLKVLKTGDEENVNRLFDPHVRVEWDGREIHGMETFTRELSHLRFKLDDFKLHHISVAEGRAIIHGRFHGRIEYGDKEHEFDSHVILFVLKVDGRWLIKKIEFR”, the protease stability score came out at 1.83.
“SEEHQTAEKMLRILLHLFLTGDEDKFEHLLDPHVRLHVGDKEIHGRELASKKLHEMVRHLRVRDVHVDTLDIQGNKMHFDTRIDVEQGDKTYILRFHWYNEKVDGRWRIHLVHYD” gave a protease stability score of 1.68.
With “SEEHRDIEIARHIWVDMLRTGDERKSKELADPHVQIHFENRIYHGREEWERMIHELIHTLGADHIEIRIHSIEVQGDKILVHFHIEFQVNGKYLRYDSRSVFIKINGQWHLRSVYII” the figure was 1.25.
Turning to “SEEHRDSKRAIDILVHSVRTGDEKSFESFLDPNVRIDVDGVELHGMEFATTIFREWRIHHVHIDRYRSQGDWIEVDTTMDVRYGDKTDTRKTELIILKVNGVWLLHSVIIR”, the protease stability score came out at 1.19.
Take “SEEHRDVAKVIHDWFHDTITGDFKTLERLMDPNARLRINGQEFHGREEVRKFLERLLRHWREHSVEIEDINVQGDKASVHSHIDGEIDGRRIRMRSIFIILKFDGQWLMHSVIVE”: the protease stability score is 2.68.
Sequence “SEEHRESEEASHEFRRLWETGDEKDFLKLADPHTRLEVNGKDIHGMREVTEFMKRRLHHLGFKHSDVKHEHVEVFDGKVRIEMIIEIHVNGVPLHTEVLVILTKINGKWRIHSITEEIK” returned a protease stability score of 0.69.
For “SEEHRKVEEFARHWLHNFQTGDFRRFYELVDPNVRLRQGDWEFHGREIVAEWLFVHLEHARIDDYKVNHVENYNGRSIIDSEIHGEINGRRDITRVEIILIIINGRVHYVEIRIR” the value was 2.31.
In turn, “SEEHRLMEEIARIFIHLFLTGDEELFKHLADPNTRTHIHYGDKHIDLHGREQTTKFWKEHLDRVDHVEIRINDIRSIGDKAHIDGVLIMLVNGREHTIHIEIIVVVINGKDTEFEFRLI” returned a protease stability score of 0.966.
Regarding “SEEHRLSEEIARIEVHAWITGDEHILHELLDPNTRLEVNGREYHGREIVLKMIREFWENLGAKHREVKRVRIELIDGRVTTHIKDKVSQGDKELEIIIEIITEKVNGRWVIRNMRIELR”, the protease stability score was found to be 2.7.
Sequence “SEEHRQILHVMHLILELWMTGDEETLYHLADPNVRLLIDGREYHGREQIRKVWEDHHRRADHVDFRLKRFELFENHAHVHGEFIIVVNGVEFRHETELELHVVNGRVKEHNLRIK” had a protease stability score of 1.35.
Sequence “SEEHTIAEEAIKHLIEILETGDFRTLHRMIDPHVRFEYGDKHLHGREILIKWFEEHWEKLGVDKVEVHVKDIEIQGNKAIVIGDIVINGQRKDTVWHLIVINGRIKMIRIEEH” displayed a protease stability score of 1.7.
In turn, “SEEKDDANRHLEIFFHYFITGDESSMLREADPHVQVEQGDKHIHGMEEWVTEWSKREKELGAKHIKLEDKRIHLINGRVHLILDLIIEVGDKRRRMILIVTIDKINGRWVMSQMKLEVR” gave a protease stability score of 1.2.
Take “SEEKDQLKHVLEDLLRSIITGDEERIVELLDPEVRVDVGEKHSHGRENAAHLVQKLSEELRWRDIHVRDVRLIGDKIDIETRLEGDINGRNLIFQTHRHVIKVNGRWYFRRIIIH”: the protease stability score was 1.38.
Sequence “SEEKEDAKIALTLLHEVIETGDERLFREMADPRVQIIVNGKELHGWKHFKEMLRILSERYDHMEIKFRDVRVVDGQVDSDVTINLHYDGREDQMEMDIIISKFDGRWFNHQVIFR” registered a protease stability score of 1.34.
In turn, “SEEKEDIDLAMEIFLHALETGDWEELLRQMDPNVRIVIGDKETHGREEFELTLLKLGIDHFHIKDMKLINGRLHLDTRVHFNGVTVQTEIIIVKFNGRWVIEEMDFQ” showed a protease stability score of 2.4.
As for “SEEKEEVKEVVEHVLEVMLTGDEEHSRELVDPHVRIEVGDKSRHGRDDMAHWLSHARIHRLHIKRSEVIGDYLHIDVHIDVEYNGKRMTTDVRRHELKVDGRWFIREERIE”, the protease stability score came to 1.42.
For “SEEKEHHHQLARDILEMLRTGNEEIWHRLLDPHVKLNIDGKEYHGREDVRQMLRDHLEKIKGIKLHVTDVKDFDGKVYVHGRWHVGNFTVDILTIYTFIDGRVHTMSEETR”, the protease stability score was determined as 1.41.
For “SEEKEHSDRLAEHLIHWFYTGDEDKLNELFDPNTKYVINGKELHGMESEHRERREEWRRVKNITFSIKHWDIQGNKVILHMTIHVGEKDIFVTYEYRIFDGKMKEIQVHVR” the value was 0.867.
The sequence “SEEKEIAERFIEMALQVWLTGDERSMVDMVDPHVLNIVGDKEHHGREILLKFLHDFKERFPNVRVKHRDVHIDLQGDKMEVRIDGRIHFDGKQFRLEIIIITTKIDGRWRVTHWEVRIE” showed a protease stability score of 2.19.
In turn, “SEEKEIAERIVRELLYAYHTGDEQLFNHLADPHVRIHIGEFHKVGREHWEELHRWLDNHLRIHRFFFRDVEVQGEKVHIHVRTNTIIGDKRIDTNLLFFILVVNGKIKHMEVREI” gave a protease stability score of 1.81.
For the sequence “SEEKEKAEHVVRQFLRVILTGDWERIEELMDPHVRFRVDVDGQTLHNHGRERLIDWYAKVKGLRNNLREIHIFENRAELHFESTIGDKHFKERIEIHIVDGRFKSVTFQFE”, the protease stability score was found to be 1.42.
With “SEEKELLEKISELLLKLLKTGDEETWNKLADPNMRLNVNGKDVHGWHKMIKLRHEVWEKLGIDHLEVKTIDIINGRVRIESRLVVNGRFIHIELEFHVINGRNEEEHLFVR” the figure was 0.418; with “SEEKEMLETWFLLLVESFETGDEELFEELADPRTRLVINGRHQHGREDINEWLHRVWHKLGAKHVSLDLHDMRVINGRIHSHFTLLIRIGDYTERRQVDLHMIIINGKVKHVEIRFR”, 1.06; with “SEEKEMVLHLAELLIELEFTGNWEKLFELADPNVLSRINGRELHGMEKHRKHWEEIRIHRVHIEKVHIETIGDKAKLDIHGRLDGEVNGVRDISESVIHIVSRKYDGRWIVKSIEIRVH”, 1.22.
For “SEEKERNHEIAEILIKLWLTGDEDHFWQLADPNPRVDFDGQEIIGRESIMRLLEHLIRRLGINHKHVDHTERQGDKVHIEVRLDQGEYHRTLHLEFIYVNGRVKEVRIRSRER” the value was 1.4; for “SEEKHDSEKLSHLLDHEWLTGDEESFRKLADPHVKSNINGVRLHGWRELHQFLDEHFNHLGAKIEDSDTEHIHTQGDKAFIHSTFVLLVNGKRIELETFFRSRKFDGRWVLTEVHVH”, 0.521.

For the origin of these results see the NTF2 design screens of Basanta et al. (2020).
